Experimental data as given in patent US20240124543A1.
Read-outs that look alike come from different tables or passages of the source.

Legend:
Assay in all cases: cell-based or functional assay
TGFβ1 (R&D systems) [1] = molecular target: TGFβ1 (R&D systems) (UniProt P01137)
TGFβ1 (R&D systems) [2] = molecular target: TGFβ1 (R&D systems) (UniProt P01137); remark: listed apart in the source
IL2Rαβγ on CTLL2 cells = molecular target: IL2Rαβγ on CTLL2 cells
[3] = molecular target: IL2Rβ and common γ chain on 32Dβ cells
[4] = molecular target: IL2Rβ and common γ chain on 32Dβ cells; remark: listed apart in the source

UniProt P01137, sequence (P01137 279-390 limits assumed): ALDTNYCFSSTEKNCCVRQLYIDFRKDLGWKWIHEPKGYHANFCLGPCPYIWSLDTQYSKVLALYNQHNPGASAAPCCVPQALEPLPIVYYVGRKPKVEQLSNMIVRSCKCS

Row | IC50, inhibition of TGFβ1 activity in HEK-Blue TGFβ cells (TGFβ1 (R&D systems) [1]) [nM] | IC50, inhibition of TGFβ1 activity in HEK-Blue TGFβ cells (TGFβ1 (R&D systems) [2]) [nM] | EC50, CTLL2 cell proliferation (PrestoBlue) (IL2Rαβγ on CTLL2 cells) [nM] | EC50, CTLL2 cell proliferation (WST1) (IL2Rαβγ on CTLL2 cells) [nM] | EC50 (printed EC:), 32Dβ cell proliferation (WST1) [3] [nM] | EC50, 32Dβ cell proliferation (WST1) [3] [nM] | EC50, 32Dβ cell proliferation (WST1) [4] [nM] | Substance
1 | 0.461 | 0.559 |  |  |  |  |  | Human recombinant TGFβRII/Fc (from UniProt P37173 24-159) (Fc fusion)
2 |  |  | 0.00495 | 0.00622 | 0.0166 | 0.0166 | 0.0106 | human recombinant IL-15 (from UniProt P40933 49-162) (ligand)
